Assay results: patent publication US20040235714A1 (Amgen, published 2004)

T1: human GDNFR-α Related Receptor 2 (GRR2), endogenously expressed on LA-N-5 neuroblastoma cells (human, UniProt O00451 22-444)
T1 construct: whole, on cells; GDNFR-α mRNA was not detected; The cells also express Ret; also called hGRR2
T1 sequence (looked up): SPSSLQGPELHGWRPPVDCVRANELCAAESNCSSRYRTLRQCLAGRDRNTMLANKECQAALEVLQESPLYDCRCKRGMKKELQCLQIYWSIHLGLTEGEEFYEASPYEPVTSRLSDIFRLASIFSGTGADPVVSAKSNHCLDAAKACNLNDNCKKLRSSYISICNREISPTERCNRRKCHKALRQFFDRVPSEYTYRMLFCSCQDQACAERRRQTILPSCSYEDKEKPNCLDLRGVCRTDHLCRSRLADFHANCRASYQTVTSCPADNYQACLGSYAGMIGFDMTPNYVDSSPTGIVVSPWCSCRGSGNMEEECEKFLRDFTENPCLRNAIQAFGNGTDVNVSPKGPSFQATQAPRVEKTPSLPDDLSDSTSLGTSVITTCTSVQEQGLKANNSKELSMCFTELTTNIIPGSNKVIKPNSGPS

T2: rat GDNF receptor-alpha (GDNFR-α) expressed on cells from the rat cDNA clone (rat, UniProt Q62997 25-430, GPI-anchored to the cell membrane)
T2 construct: also called rGDNFR-α
T2 sequence: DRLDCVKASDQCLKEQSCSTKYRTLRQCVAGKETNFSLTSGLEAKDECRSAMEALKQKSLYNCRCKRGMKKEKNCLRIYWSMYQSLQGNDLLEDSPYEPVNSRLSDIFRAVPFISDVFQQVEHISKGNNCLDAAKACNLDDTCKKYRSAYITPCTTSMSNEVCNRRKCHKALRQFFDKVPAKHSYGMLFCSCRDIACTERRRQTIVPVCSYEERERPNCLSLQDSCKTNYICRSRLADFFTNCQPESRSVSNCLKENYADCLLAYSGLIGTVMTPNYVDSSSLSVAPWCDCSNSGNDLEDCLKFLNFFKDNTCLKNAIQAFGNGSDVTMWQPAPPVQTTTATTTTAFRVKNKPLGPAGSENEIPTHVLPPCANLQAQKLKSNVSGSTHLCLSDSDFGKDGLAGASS


How the values were obtained:
[1] = target: T1, human GDNFR-α Related Receptor 2 …; assay: summary of Example 10 (cell binding and cross-linking)
[2] = target: T2, rat GDNF receptor-alpha (GDNFR-α) …; assay: GDNF binding to 293T cells expressing GDNFR-α; low affinity sites
[3] = target: T2, rat GDNF receptor-alpha (GDNFR-α) …; assay: GDNF binding to 293T cells expressing GDNFR-α; high affinity sites
[4] = target: T2, rat GDNF receptor-alpha (GDNFR-α) …; assay: equilibrium binding of [125I]GDNF to NGR-38 cells, Scatchard plot; low affinity site
Experimental: (§1) Following incubation, unbound [¹²⁵I]GDNF was removed and the radioactivity associated with the cells was determined as described in Experimental Procedures. Results are depicted in FIG. 7: (A) Equilibrium binding of [¹²⁵I]GDNF to NGR-38 cells (circles) and Neuro-2a cells (squares) in the presence (open circles and open squares) or absence (filled circles and filled squares) of unlabeled GDNF; (B) Scatchard analysis of [¹²⁵I]GDNF binding to NGR-38 cells.
(§2) Neuro-2a cells (ATCC #CCL 131) were transfected with an expression plasmid, as described above, using the Calcium Phosphate Transfection System (GIBCO/BRL) according to the manufacturer's directions. Transfected cells were selected for expression of the plasmid by growth in 400 μg/mL G418 antibiotic (Sigma). G418 resistant clones were expanded and assayed for GDNFR-α expression by binding to [¹²⁵I]GDNF (Amersham, Inc., custom iodination, catalog #IMQ1057). Cells from each clone were seeded at a density of 3×10⁴ cells/cm² in duplicate wells of 24-well tissue culture plates (Becton Dickinson) pre-coated with polyornithine. […] Cells were then washed four times with ice-cold washing buffer, lysed in 1 M NaOH, and the cell-associated radiolabel quantitated in a 1470 Wizard Automated Gamma Counter (Wallac Inc.). […]

[5] = target: T2, rat GDNF receptor-alpha (GDNFR-α) …; assay: equilibrium binding of [125I]GDNF to NGR-38 cells, Scatchard plot; high affinity site
Experimental: as §1, §2

[6] = target: T2, rat GDNF receptor-alpha (GDNFR-α) …; assay: 50 pM [125I]GDNF on NGR-16 cells with or without excess unlabeled GDNF, gamma counting
Experimental: (§3) Neuro-2a cells were transfected with a mammalian expression vector containing the rat GDNFR-α cDNA (such as the expression plasmid described above). Three clonal lines, NGR-16, NGR-33, and NGR-38 were tested for their ability to bind [¹²⁵I]GDNF. The unbound [¹²⁵I]GDNF was removed at the end of the incubation and the amount of radioactivity associated with the cells was determined as described in Experimental Procedures. […] Binding could be effectively competed by the addition of 500 nM unlabeled GDNF.
as §2

[7] = target: T2, rat GDNF receptor-alpha (GDNFR-α) …; assay: 50 pM [125I]GDNF on NGR-33 cells with or without excess unlabeled GDNF, gamma counting
Experimental: as §3, §2

[8] = target: T2, rat GDNF receptor-alpha (GDNFR-α) …; assay: 50 pM [125I]GDNF on NGR-38 cells with or without excess unlabeled GDNF, gamma counting
Experimental: as §3, §2

[9] = target: T2, rat GDNF receptor-alpha (GDNFR-α) …; assay: Scatchard analysis of GDNF binding to 293T cells transfected with a GDNFR-α cDNA clone in pBKRSV; low affinity site

binding result [1]	Kd [2] [nM]	Kd [3] [nM]	Kd [4] [nM]	Kd [5] [nM]	ratio of [125I]GDNF bound in the absence and presence of unlabeled GDNF [6]	ratio of [125I]GDNF bound in the absence and presence of unlabeled GDNF [7]	ratio of [125I]GDNF bound in the absence and presence of unlabeled GDNF [8]	Kd [9] [nM]	Binder
binds	~0.2	~0.002	0.332	0.0015	12.8	8	16	~0.5	glial cell line-derived neurotrophic factor (GDNF), recombinant human (ligand, UniProt P39905 78-211, looked up, radio-iodinated ([125I]) in the binding and cross-linking assays; unlabeled as competitor and in the phosphorylation assays, mature; also called unlabeled GDNF) SPDKQMAVLPRRERNRQAAAANPENSRGKGRRGQRGKNRGCVLTAIHLNVTDLGLGYETKEELIFRYCSGSCDAAETTYDKILKNLSRNRRLVSDKVGQACCRPIAFDDDLSFLDDNLVYHILRKHSAKRCGCI
binds									neurturin, recombinant human (ligand, UniProt Q99748 96-197, looked up, radio-iodinated ([125I]) in the binding and cross-linking assays; unlabeled as competitor and in the phosphorylation assays, mature; also called NTN) ARLGARPCGLRELEVRVSELGLGYASDETVLFRYCAGACEAAARVYDLGLRRLRQRRRLRRERVRAQPCCRPTAYEDEVSFLDAHSRYHTVHELSARECACV
